Test results reported in patent US20120171723A1.

Molecular target: human zFGF5 (FGF homolog polypeptide) (human) (UniProt O76093)
Test: cell-based or functional assay

Chain of human zFGF5 (FGF homolog polypeptide) (human) (O76093 28-207): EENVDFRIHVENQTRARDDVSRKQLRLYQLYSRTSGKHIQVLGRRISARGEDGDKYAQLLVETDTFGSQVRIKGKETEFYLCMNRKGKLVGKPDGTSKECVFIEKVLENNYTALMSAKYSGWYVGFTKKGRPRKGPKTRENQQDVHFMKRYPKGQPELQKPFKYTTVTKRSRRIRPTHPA

Substance	Cell Proliferation (percent of control) at 0 fold-excess of soluble receptor (percent of control)	Cell Proliferation (percent of control) at 62.5 fold-excess of soluble receptor (percent of control)	Cell Proliferation (percent of control) at 125 fold-excess of soluble receptor (percent of control)	Cell Proliferation (percent of control) at 250 fold-excess of soluble receptor (percent of control)	Cell Proliferation (percent of control) at 500 fold-excess of soluble receptor (percent of control)	Cell Proliferation (percent of control) at 1000 fold-excess of soluble receptor (percent of control)	Cell Proliferation (percent of control) at 0.8 fold-excess of soluble receptor (percent of control)	Cell Proliferation (percent of control) at 1.6 fold-excess of soluble receptor (percent of control)	Cell Proliferation (percent of control) at 3.2 fold-excess of soluble receptor (percent of control)	Cell Proliferation (percent of control) at 6.3 fold-excess of soluble receptor (percent of control)	Cell Proliferation (percent of control) at 12.5 fold-excess of soluble receptor (percent of control)	Cell Proliferation (percent of control) at 25 fold-excess of soluble receptor (percent of control)	Cell Proliferation (percent of control) at 50 fold-excess of soluble receptor (percent of control)	Cell Proliferation (percent of control) at 100 fold-excess of soluble receptor (percent of control)
FGFR2α-IIIb/Fc soluble receptor (from UniProt P21802 22-378) (Fc fusion)	100	101	90	91	101	99	–	–	–	–	–	–	–	–
FGFR3α-IIIc/Fc soluble receptor (Fc fusion)	100	–	–	–	–	–	85	66	37	5	1	0.2	0	0
